Reference: PMC2094074 (Nucleic Acids Research, 2007)
One block for each binder: values may come before it.

B3: His-tagged hTDG-ΔC1(1-308) (domain or fragment, human, UniProt Q13569 1-308, looked up)
chain: MEAENAGSYSLQQAQAFYTFPFQQLMAEAPNMAVVNEQQMPEEVPAPAPAQEPVQEAPKGRKRKPRTTEPKQPVEPKKPVESKKSGKSAKSKEKQEKITDTFKVKRKVDRFNGVSEAELLTKTLPDILTFNLDIVIIGINPGLMAAYKGHHYPGPGNHFWKCLFMSGLSEVQLNHMDDHTLPGKYGIGFTNMVERTTPGSKDLSSKEFREGGRILVQKLQKYQPRIAVFNGKCIYEIFSKEVFGVKVKNLEFGLQPHKIPDTETLCYVMPSSSARCAQFPRAQDKVHYYIKLKDLRDQLKGIERNMDV
B4: GST-hRad1 (natural protein, human, UniProt O60671 1-282, looked up)
chain: MPLLTQQIQDEDDQYSLVASLDNVRNLSTILKAIHFREHATCFATKNGIKVTVENAKCVQANAFIQAGIFQEFKVQEESVTFRINLTVLLDCLSIFGSSPMPGTLTALRMCYQGYGYPLMLFLEEGGVVTVCKINTQEPEETLDFDFCSTNVINKIILQSEGLREAFSELDMTSEVLQITMSPDKPYFRLSTFGNAGSSHLDYPKDSDLMEAFHCNQTQVNRYKISLLKPSTKALVLSCKVSIRTDNRGFLSLQYMIRNEDGQICFVEYYCCPDEEVPESES
B5: GST-hRad9 (natural protein, human, UniProt Q99638 1-391, looked up)
chain: MKCLVTGGNVKVLGKAVHSLSRIGDELYLEPLEDGLSLRTVNSSRSAYACFLFAPLFFQQYQAATPGQDLLRCKILMKSFLSVFRSLAMLEKTVEKCCISLNGRSSRLVVQLHCKFGVRKTHNLSFQDCESLQAVFDPASCPHMLRAPARVLGEAVLPFSPALAEVTLGIGRGRRVILRSYHEEEADSTAKAMVTEMCLGEEDFQQLQAQEGVAITFCLKEFRGLLSFAESANLNLSIHFDAPGRPAIFTIKDSLLDGHFVLATLSDTDSHSQDLGSPERHQPVPQLQAHSTPHPDDFANDDIDSYMIAMETTIGNEGSRVLPSISLSPGPQPPKSPGPHSEEEDEAEPSTVPGTPPPKKFRSLFFGSILAPVRSPQGPSPVLAEDSEGEG
B6: His-tagged hHus1 expressed in E. coli (natural protein, human, UniProt O60921 1-280, looked up)
chain: MKFRAKIVDGACLNHFTRISNMIAKLAKTCTLRISPDKLNFILCDKLANGGVSMWCELEQENFFNEFQMEGVSAENNEIYLELTSENLSRALKTAQNARALKIKLTNKHFPCLTVSVELLSMSSSSRIVTHDIPIKVIPRKLWKDLQEPVVPDPDVSIYLPVLKTMKSVVEKMKNISNHLVIEANLDGELNLKIETELVCVTTHFKDLGNPPLASESTHEDRNVEHMAEVHIDIRKLLQFLAGQQVNPTKALCNIVNNKMVHFDLLHEDVSLQYFIPALS

Key:
Assay in all cases: pull-down
[1] = biological target: B6
GST-hRad9 = biological target: B5
GST-hRad1 = biological target: B4
[2] = biological target: B3
[3] = biological target: His-tagged human thymine DNA glycosylase, full length (hTDG-full, residues 1-410) (human, UniProt Q13569 1-410)
GST-hTDG (full length) = GST-hTDG (full length) (human, UniProt Q13569 1-410)

binding result [1]: binds
B1: GST-hTDG-N(1-124) (domain or fragment, human, UniProt Q13569 1-124, looked up)
chain: MEAENAGSYSLQQAQAFYTFPFQQLMAEAPNMAVVNEQQMPEEVPAPAPAQEPVQEAPKGRKRKPRTTEPKQPVEPKKPVESKKSGKSAKSKEKQEKITDTFKVKRKVDRFNGVSEAELLTKTL

binding result (GST-hRad9): binds
binding result (GST-hRad1): binds
B2: His-tagged hTDG(67-308) (domain or fragment, human, UniProt Q13569 67-308, looked up)
chain: TTEPKQPVEPKKPVESKKSGKSAKSKEKQEKITDTFKVKRKVDRFNGVSEAELLTKTLPDILTFNLDIVIIGINPGLMAAYKGHHYPGPGNHFWKCLFMSGLSEVQLNHMDDHTLPGKYGIGFTNMVERTTPGSKDLSSKEFREGGRILVQKLQKYQPRIAVFNGKCIYEIFSKEVFGVKVKNLEFGLQPHKIPDTETLCYVMPSSSARCAQFPRAQDKVHYYIKLKDLRDQLKGIERNMDV

Binder: B3
binding result (GST-hRad9): binds

Binder: B4
binding result [2]: binds
binding result [3]: binds

Binder: B5
binding result [3]: binds

Binder: B6
binding result (GST-hTDG (full length)): binds

binding result [2]: binds
B7: GST-hHus1 (natural protein, human, UniProt O60921 1-280, looked up)
chain: MKFRAKIVDGACLNHFTRISNMIAKLAKTCTLRISPDKLNFILCDKLANGGVSMWCELEQENFFNEFQMEGVSAENNEIYLELTSENLSRALKTAQNARALKIKLTNKHFPCLTVSVELLSMSSSSRIVTHDIPIKVIPRKLWKDLQEPVVPDPDVSIYLPVLKTMKSVVEKMKNISNHLVIEANLDGELNLKIETELVCVTTHFKDLGNPPLASESTHEDRNVEHMAEVHIDIRKLLQFLAGQQVNPTKALCNIVNNKMVHFDLLHEDVSLQYFIPALS
